Experimental data from patent US20240317859A1 (FOUNDATION FOR BIOMEDICAL RESEARCH AND INNOVATION AT KOBE, published 2024).

Key:
[1] = biological target: Human PD-1/PDCD1 Protein (PD-1) (human, UniProt Q15116 25-167, limits assumed); assay: SPR, Biacore 8K; PD-1 captured by anti-His antibody, antibody in flow
Experimental: The binding affinity of each antibody to human PD-1 was measured with Biacore 8K (Cytiva). Briefly, anti-His Tag antibody was immobilized by amine coupling using Amine Coupling Kit and His Capture Kit, onto 8 channels of a sensor chip (provided with 16 flow cells; one channel consisting of two flow cells) which had carboxymethyl dextran immobilized on a gold film. The immobilization was performed by feeding an activation solution (NHS and EDC mixed in equal amounts) at a flow rate of 10 μl/min for 7 minutes, an immobilization solution at a flow rate of 5 μl/min for 7 minutes, and 1 M ethanolamine hydrochloride-NaOH (pH 8.5) at a flow rate of 10 μl/min for 7 minutes. The buffer used at the time of immobilization was 1×HBS-EP+ Buffer. After the immobilization and before applying a sample, Human PD-1/PDCD1 Protein (PD-1) adjusted to 1 μg/ml with 1×HBS-EP+ Buffer was fed to one of the two flow cells of each channel in an amount of 20 μl at a flow rate of 10 μl/min to thereby capture PD-1 on the sensor chip. As regards the other flow cell, 1×HBS-EP+ Buffer was fed in the same manner to prepare a control flow cell. Each antibody was adjusted to 16 nM with 1×HBS-EP+ Buffer, and then subjected to 2-fold 7-step serial dilution using 1×HBS-EP+ Buffer. The resultant sample solution (30 μl) was fed to each flow cell at a flow rate of 10 μl/min and the response was measured. After subtracting the response of control flow cell from the response of the flow cell which was allowed to capture the ligand, KD value was calculated by curve fitting using Biacore 8K Evaluation Software.

[2] = biological target: human PD-1 (wild-type), expressed on cells (human, UniProt Q15116 25-288); assay: cell-based or functional assay
Chain of human PD-1 (wild-type), expressed on cells (Q15116 25-288 limits assumed): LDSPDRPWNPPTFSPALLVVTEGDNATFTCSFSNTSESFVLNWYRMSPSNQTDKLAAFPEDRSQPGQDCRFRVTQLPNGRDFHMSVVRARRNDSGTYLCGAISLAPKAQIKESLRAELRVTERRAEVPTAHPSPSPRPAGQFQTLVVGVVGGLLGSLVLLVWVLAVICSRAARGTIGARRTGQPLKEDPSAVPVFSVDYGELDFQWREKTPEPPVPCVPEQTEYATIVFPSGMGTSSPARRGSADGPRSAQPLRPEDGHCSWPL

Chain of Human PD-1/PDCD1 Protein (PD-1) (Q15116 25-167 limits assumed): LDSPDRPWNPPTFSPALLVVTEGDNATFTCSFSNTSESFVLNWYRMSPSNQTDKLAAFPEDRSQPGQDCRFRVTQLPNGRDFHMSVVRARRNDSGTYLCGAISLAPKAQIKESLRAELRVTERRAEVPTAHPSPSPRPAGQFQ

| Kd [1] | Cell-cell contact assay [2] | Binder |
| --- | --- | --- |
| 0.232 nM | 102 ng/mL | HM297-G5 (antibody, human IgG1, V domains shown, also called humanized HM297, VH ver.G / VL ver.5) VH: QVQLVQSGPEVKKPGASVKIPCKASGYTFTDYNVDWVRQVPGQGLEWIGDIDPNNGGTIYNQKFKDKATLTVDKSTRTAYMELRSLRSDDTAVYYCARWRGAMDYWGQGTLVTVSS VL: DIQMTQSPSSLSASVGDRVTITCRASQDIDNYLKWYQQKPDGTVKLLIYDTSRLHSGVPSRFSGSGSGTDYTLTISSLKQEDFATYYCQQGYTLPWTFGQGTKLEIK |
| 4.83 nM | 150 ng/mL | HM297-F6 (antibody, human IgG1, V domains shown, also called humanized HM297, VH ver.F / VL ver.6) VH: QVQLVQSGPEVKKPGASVKIPCKASGYTFTDYNVDWVRQSHGKSLEWIGDIDPNNGGTIYNQKFKDRVTMTVDKSTRTAYMELRSLRSDDTAVYYCARWRGAMDYWGQGTLVTVSS VL: DIQMTQSPSSLSASVGDRVTITCRASQDIDNYLKWYQQKPGKAPKLLIYDTSRLHSGVPSRFSGSGSGTDYTLTISSLQPEDFATYYCQQGYTLPWTFGQGTKLEIK |
| 0.563 nM | 96.4 ng/mL | humanized HM297-H5-IgG1-K322A (antibody, V domains shown) VH: QVQLVQSGPEVKKPGASVKIPCKASGYTFTDYNVDWVRQVPGQGLEWMGDIDPNNGGTIYNQKFKDRVTMTVDKSTRTAYMELRSLRSDDTAVYYCARWRGAMDYWGQGTLVTVSS VL: DIQMTQSPSSLSASVGDRVTITCRASQDIDNYLKWYQQKPDGTVKLLIYDTSRLHSGVPSRFSGSGSGTDYTLTISSLKQEDFATYYCQQGYTLPWTFGQGTKLEIKR |
| 0.221 nM | 185 ng/mL | HM297-H4 (antibody, human IgG1, V domains shown, also called humanized HM297, VH ver.H / VL ver.4) VH: QVQLVQSGPEVKKPGASVKIPCKASGYTFTDYNVDWVRQVPGQGLEWMGDIDPNNGGTIYNQKFKDRVTMTVDKSTRTAYMELRSLRSDDTAVYYCARWRGAMDYWGQGTLVTVSS VL: DIQMTQTTSSLSASVGDRVTITCRASQDIDNYLKWYQQKPDGTVKLLIYDTSRLHSGVPSRFSGSGSGTDYTLTISSLKQEDFATYYCQQGYTLPWTFGQGTKLEIK |
| 2.2 nM | 94.9 ng/mL | HM297-I5 (antibody, human IgG1, V domains shown, also called humanized HM297, VH ver.I / VL ver.5) VH: QVQLVQSGPEVKKPGASVKVVCKASGYTFTDYNVDWVRQVPGQGLEWMGDIDPNNGGTIYNQKFKDRVTMTVDTSTRTAYMELRSLRSDDTAVYYCARWRGAMDYWGQGTLVTVSS VL: DIQMTQSPSSLSASVGDRVTITCRASQDIDNYLKWYQQKPDGTVKLLIYDTSRLHSGVPSRFSGSGSGTDYTLTISSLKQEDFATYYCQQGYTLPWTFGQGTKLEIK |
| 50.2 nM | 78.6 ng/mL | HM297-E5 (antibody, human IgG1, V domains shown, also called humanized HM297, VH ver.E / VL ver.5) VH: QVQLVQSGPELVKPGASVKIPCKASGYTFTDYNVDWVRQSHGKSLEWIGDIDPNNGGTIYNQKFKDKATLTVDKSTRTAYMELRSLRSDDTAVYYCARWRGAMDYWGQGTLVTVSS VL: DIQMTQSPSSLSASVGDRVTITCRASQDIDNYLKWYQQKPDGTVKLLIYDTSRLHSGVPSRFSGSGSGTDYTLTISSLKQEDFATYYCQQGYTLPWTFGQGTKLEIK |
| 1.89 nM | 59.7 ng/mL | HM297-G6 (antibody, human IgG1, V domains shown, also called humanized HM297, VH ver.G / VL ver.6) VH: QVQLVQSGPEVKKPGASVKIPCKASGYTFTDYNVDWVRQVPGQGLEWIGDIDPNNGGTIYNQKFKDKATLTVDKSTRTAYMELRSLRSDDTAVYYCARWRGAMDYWGQGTLVTVSS VL: DIQMTQSPSSLSASVGDRVTITCRASQDIDNYLKWYQQKPGKAPKLLIYDTSRLHSGVPSRFSGSGSGTDYTLTISSLQPEDFATYYCQQGYTLPWTFGQGTKLEIK |
| 24.1 nM | 92.3 ng/mL | HM297-F4 (antibody, human IgG1, V domains shown, also called humanized HM297, VH ver.F / VL ver.4) VH: QVQLVQSGPEVKKPGASVKIPCKASGYTFTDYNVDWVRQSHGKSLEWIGDIDPNNGGTIYNQKFKDRVTMTVDKSTRTAYMELRSLRSDDTAVYYCARWRGAMDYWGQGTLVTVSS VL: DIQMTQTTSSLSASVGDRVTITCRASQDIDNYLKWYQQKPDGTVKLLIYDTSRLHSGVPSRFSGSGSGTDYTLTISSLKQEDFATYYCQQGYTLPWTFGQGTKLEIK |
| 4.84 nM | 65.6 ng/mL | HM297-I4 (antibody, human IgG1, V domains shown, also called humanized HM297, VH ver.I / VL ver.4) VH: QVQLVQSGPEVKKPGASVKVVCKASGYTFTDYNVDWVRQVPGQGLEWMGDIDPNNGGTIYNQKFKDRVTMTVDTSTRTAYMELRSLRSDDTAVYYCARWRGAMDYWGQGTLVTVSS VL: DIQMTQTTSSLSASVGDRVTITCRASQDIDNYLKWYQQKPDGTVKLLIYDTSRLHSGVPSRFSGSGSGTDYTLTISSLKQEDFATYYCQQGYTLPWTFGQGTKLEIK |
| 0.129 nM | 100 ng/mL | HM297-E4 (antibody, human IgG1, V domains shown, also called humanized HM297, VH ver.E / VL ver.4) VH: QVQLVQSGPELVKPGASVKIPCKASGYTFTDYNVDWVRQSHGKSLEWIGDIDPNNGGTIYNQKFKDKATLTVDKSTRTAYMELRSLRSDDTAVYYCARWRGAMDYWGQGTLVTVSS VL: DIQMTQTTSSLSASVGDRVTITCRASQDIDNYLKWYQQKPDGTVKLLIYDTSRLHSGVPSRFSGSGSGTDYTLTISSLKQEDFATYYCQQGYTLPWTFGQGTKLEIK |
| 2.35 nM | 98.9 ng/mL | HM297-F5 (antibody, human IgG1, V domains shown, also called humanized HM297, VH ver.F / VL ver.5) VH: QVQLVQSGPEVKKPGASVKIPCKASGYTFTDYNVDWVRQSHGKSLEWIGDIDPNNGGTIYNQKFKDRVTMTVDKSTRTAYMELRSLRSDDTAVYYCARWRGAMDYWGQGTLVTVSS VL: DIQMTQSPSSLSASVGDRVTITCRASQDIDNYLKWYQQKPDGTVKLLIYDTSRLHSGVPSRFSGSGSGTDYTLTISSLKQEDFATYYCQQGYTLPWTFGQGTKLEIK |
| 0.451 nM | 55.4 ng/mL | HM297-G4 (antibody, human IgG1, V domains shown, also called humanized HM297, VH ver.G / VL ver.4) VH: QVQLVQSGPEVKKPGASVKIPCKASGYTFTDYNVDWVRQVPGQGLEWIGDIDPNNGGTIYNQKFKDKATLTVDKSTRTAYMELRSLRSDDTAVYYCARWRGAMDYWGQGTLVTVSS VL: DIQMTQTTSSLSASVGDRVTITCRASQDIDNYLKWYQQKPDGTVKLLIYDTSRLHSGVPSRFSGSGSGTDYTLTISSLKQEDFATYYCQQGYTLPWTFGQGTKLEIK |
| 1.86 nM | 141 ng/mL | HM297-H6 (antibody, human IgG1, V domains shown, also called humanized HM297, VH ver.H / VL ver.6) VH: QVQLVQSGPEVKKPGASVKIPCKASGYTFTDYNVDWVRQVPGQGLEWMGDIDPNNGGTIYNQKFKDRVTMTVDKSTRTAYMELRSLRSDDTAVYYCARWRGAMDYWGQGTLVTVSS VL: DIQMTQSPSSLSASVGDRVTITCRASQDIDNYLKWYQQKPGKAPKLLIYDTSRLHSGVPSRFSGSGSGTDYTLTISSLQPEDFATYYCQQGYTLPWTFGQGTKLEIK |
| 12.6 nM | 65.4 ng/mL | HM297-E6 (antibody, human IgG1, V domains shown, also called humanized HM297, VH ver.E / VL ver.6) VH: QVQLVQSGPELVKPGASVKIPCKASGYTFTDYNVDWVRQSHGKSLEWIGDIDPNNGGTIYNQKFKDKATLTVDKSTRTAYMELRSLRSDDTAVYYCARWRGAMDYWGQGTLVTVSS VL: DIQMTQSPSSLSASVGDRVTITCRASQDIDNYLKWYQQKPGKAPKLLIYDTSRLHSGVPSRFSGSGSGTDYTLTISSLQPEDFATYYCQQGYTLPWTFGQGTKLEIK |
| 0.0493 nM | 78.3 ng/mL | chimeric HM297-IgG1-K322A (antibody, Mouse Fab region with the Fc region of human IgG1-K322A) heavy: not shown light: DVQMTQTTSSLSASLGDRVTISCRASQDIDNYLKWYQQKPDGTVKLLIYDTSRLHSGVPSRFSGSGSGTDYSLTISNLKQEDIATYFCQQGYTLPWTFGGGTRLEIKRTVAAPSVFIFPPSDEQLKSGTASVVCLLNNFYPREAKVQWKVDNALQSGNSQESVTEQDSKDSTYSLSSTLTLSKADYEKHKVYACEVTHQGLSSPVTKSFNRGEC |
